This sample holds only a part of the variants without activity.
B1: TPR 5TU (parent)
chain: GGAUCUUCUCGAUCUAACAAAAAAGACAAAUCUGCCACAAAGCUUGAGAGCAUCUUCGGAUGCAGAGGCGGCAGCCUUCGGUGGCGCGAUAGCGCCAACGUUCUCAACUAUGACACGCAAAACGCGUGCUCCGUUGAAUGGAGUUUAUCAUG

Variants of: B1
Assay: polymerase ribozyme fitness, log enrichment relative to wild type (log ratio); higher = more active; in vitro selection for triplet polymerase activity
How it was run: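 Genotype fitness is the logarithm of its enrichment divided by wild-type enrichment, using inverse-variance-weighted averages of replicates. That logarithm is base 2. Enrichment was measured by Illumina sequencing of input and output libraries from one triplicate in vitro selection round, with frozen incubation at −7 °C, on PCR-built, transcribed mutant libraries of each subunit of a heterodimeric triplet polymerase ribozyme, retaining genotypes with ≥10 input reads and ≥1 read per output.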

Variant | polymerase ribozyme fitness (log ratio)
A20U C27U G42U A52C U55A C95G C96U | ≤ -4.2
A20U G58A C96U U111G G124A U148A | ≤ -4.2
A21G U31A C51G G71U A89C A106G A110U A138G | ≤ -4.2
A21C C96A G143A U146G | -3.61
A21C G50A U102A | -1.21
A21U A47U C93U | -0.679
A20U C38U C75A C87G A107U C132U | ≤ -4.2
A21C U33G C87U U145A A150U | ≤ -4.2
A20U A89U | -2.12
A21C U33A G50A G62A U90C C95A | ≤ -4.2
A21C C85A U127A | ≤ -4.2
A21G U77A A91G | ≤ -4.2
A21C G34A C43U A60C A64G A91U | ≤ -4.2
A21G C114U | -1.69
A21C U53A A91U C95G U134A U139C G152U | ≤ -4.2
A21U A24C C27G A28U G88U U102C A107C C114U | ≤ -4.2
A21U A24C U33C G94A A107C | ≤ -4.2
A21G G92C | 0.365
A20U C57U G59U G62U C76U C96G A147G | ≤ -4.2
A21C C87U A147U | 0.884
A20U C54A C96G C108G U109G C118G C132A G143A U148A C149U | ≤ -4.2
A21C G59C C85U G100C U130A G136A U144G | ≤ -4.2
A20U G83U U90G C99A A107U U148A | ≤ -4.2
A20U G25C G141A | -4.03

Variant | polymerase ribozyme fitness (log ratio)
A21G A47C C51U C87U U90G | ≤ -4.2
A21C A137G | -0.909
A20U U56A A64C A107G G126U | ≤ -4.2
A21C G25A | -2.85
A20U U31C A41C C51A | -2.21
A21U A22G A60G C132G U144C | -4.13
A21G A24C U31C C69G U148C | ≤ -4.2
A20U A52U A89C | -3.39
A20U U31C U109G | -0.957
A20U C36A A41G U56A G65U A119G U127C | ≤ -4.2
A21G C27A G46A A73G C87A | ≤ -4.2
A21C A28U A30U A47G | ≤ -4.2
A21G U82A C96A U101G A121U | 0.493
A21C A52C G68A U101G | ≤ -4.2
A21G A52U C85U G94U A98U C116U | -1.64
A21G C85U C96U C105U A106C A138G | ≤ -4.2
A21G A37U G59A A60C | -3.22
A21G G68A | -3.89
A21G C38U A60G C85U | 1
A21C C51U A66G C85G | ≤ -4.2
A21C C35U C75U G92C C96A C108U C131U A142C | ≤ -4.2
A21G A30U A60C U77G C85A G94U G117U A150G | ≤ -4.2
A21C U53A G58A C95U U101G C116A | -0.162
A20U U44G G46A G59C C96A A115C | ≤ -4.2

Variant | polymerase ribozyme fitness (log ratio)
A20U C51U G83A C93G C96U C103A C105A | ≤ -4.2
A20U A73G C79A C96G | ≤ -4.2
A20U C63A G84U C87U | -3.3
A21G G80A C99G A119U | -0.387
A21C A40U C93A | -1.84
A21C U44A C75A C96A | -3.98
A20U U31G C43G A52U A73C C93U G94U C116G A121G C149U | ≤ -4.2
A20U U61A C72A C75U C93G C99A C131G | ≤ -4.2
A21G G48A C54U G92A | ≤ -4.2
A20U G50A G86U C96G | ≤ -4.2
A21C A41U C76U G84A C95U U111G | -4.18
A21C A26U A60C G70C G81A G84U G92A A115U | ≤ -4.2
A21C A24U C38G C93U G117A | -2.15
A21G G46U | 0.452
A21C A26C A28C G70U A107C A147C | ≤ -4.2
A21C G50A C57A C93A U135G | ≤ -4.2
A20U C32G U56G G81A C93U A107G C131U C132G U135G A147G | ≤ -4.2
A21C A66G | -3.91
A21C A40C C99G | -0.927
A20U U55A G68U C85G C105U G124A G140C | ≤ -4.2
A21U A24C C79U G80C C85U C93U | ≤ -4.2
A20U U56A A73G G94A U101A | -2.45
A20U C51U U55G C57G A120C | -3.76
A21C A60G A73U C93G A137U | ≤ -4.2

Variant | polymerase ribozyme fitness (log ratio)
A21C G58C U61G U146G | -3.25
A20U U55A C85A | -3.29
A21G G143A | -0.569
A20U G42C C75A C105U C116U A120G G128A U146A | ≤ -4.2
A21U A41U U55G G83A U145A | -2.5
A21G A30G A89C | ≤ -4.2
A20U G48A G68U G83C C103G A138G G143C | ≤ -4.2
A21G G50C C93U C118U A138U U145A | ≤ -4.2
A21C C93A U104A G141C U144G G152A | ≤ -4.2
A20U A97U | -2.04
A21C G88A U104G A107U | ≤ -4.2
A21C C87G | -3.89
A20U U56A | -1.87
A21G U55G G143C | -1.59
A20U U55A A147C | -2.31
A20U U82A C93U U145G | -2.69
A21C A30C A41U A64U C103G A115C A119C G128A G133U | ≤ -4.2
A20U G86A C87G A91U C118A | ≤ -4.2
A21C A60G | 0.714
A21C A60U | -0.52
A20U C57A G84U | -3.17
A21U A26G U33A A142C G143U U146G C149G | ≤ -4.2
A20U G46C G62U C75G G92A G140C | ≤ -4.2
A21C A26C G71C C76G C87A C108U | ≤ -4.2

Variant | polymerase ribozyme fitness (log ratio)
A21G C54U G140A U145G | ≤ -4.2
A21C A37U C76U C87U | -1.62
A21U A24C U56A C96U A138U | ≤ -4.2
A21C C57A C85G U130G | -4
A21C G50C A60C A64U A66G G83A | ≤ -4.2
A20U U45A C87G | -4.13
A21C A24G A39G C54U U78G G94A C129G U134G G140U U145G | ≤ -4.2
A21U A29U U61A | ≤ -4.2
A21U A28C U53A G88C | ≤ -4.2
A21G C36G A47C A120C G133A | ≤ -4.2
A20U C35U G59C C75U C87U C99U A137U A138U | ≤ -4.2
A21C A52U G74A G94C A121U | ≤ -4.2
A21G U139A | -3.9
A21U A40U C85U G141A | 0.05
A21C G25C U53A | -3.09
A21C G68C A142G | -4.13
A21C G83C C87A G92U C116G | -1.27
A21G G25A U56A C93U A119G A120C U146C | -3.11
A21G G68C C85A G92A G128U | ≤ -4.2
A21U A52G C76A G81C C87G C114U A121C U146A | ≤ -4.2
A21C C116U | 0.668
A21U A24U G94U A97G A150C | ≤ -4.2
A21U A26U C57U G84U | -3.6
A21G C96U | 0.682

Variant | polymerase ribozyme fitness (log ratio)
A21G C96G | 0.474
A21C C43U C79G G83U C87G A91G A119U G141A | ≤ -4.2
A21C G84A C95A U104C | -0.91
A21C G88U A142U | ≤ -4.2
A20U G46A C76A C87G G94C C105G U144A | ≤ -4.2
A20U U61A | -2.43
A20U C93U G126A | -1.5
A21G A39U C75U U82A C87A A98G C118U C125U | ≤ -4.2
A21C C32G G84A G117A U135A | ≤ -4.2
A21U A26U G83A A106G | -3.03
A21G A40U | 0.957
A21U A24U A64C U101G A110G A138C U145A | ≤ -4.2
A21C C85U A138U | ≤ -4.2
A21C A73U A107C A121U C149U | ≤ -4.2
A21C C32G G48A A122G G126U | ≤ -4.2
A20U G71A C95A | ≤ -4.2
A21C A23G A37C C95G | ≤ -4.2
A21G C27U A52C C93G A110U G152U | ≤ -4.2
A21G A41U A64U C85G A98U | ≤ -4.2
A21C A142C | 0.655
A21C A89C C95U A142G | -3.16
A21U A39C C57U A97G | -2.62
A21C G25A U127G | ≤ -4.2
A21G A24U C93G | -4.02

Variant | polymerase ribozyme fitness (log ratio)
A21C A24G C38U G83A C99U | ≤ -4.2
A21G A98U C129A U144A | -3.61
A20U U101A | -2.4
A21C U134A | -1.79
A21G G81U C95A C96A A98U U145A | -1.34
A21C A23U A24U G92A A106G G133A | ≤ -4.2
A21C A24U A40G U144A | -3.76
A21U A29U C85U G141C | ≤ -4.2
A20U G62U G86A A107U G140A | ≤ -4.2
A20U G46C U56A C96U U135C A147G | ≤ -4.2
A21C A110C | ≤ -4.2
A21C G62C | -0.587
A21G C93U | -0.895
A21G C76G A97U | ≤ -4.2
A20U G48A G50A C76G C96G U135G | ≤ -4.2
A20U G92A A121U G141C | -4.03
A21G A52C G83U G84A U90C C95G G100A C103G A107U U139G | ≤ -4.2
A21G G81A C95U A107G A119C G141U | ≤ -4.2
A21C C35U U44A U53A U101G | ≤ -4.2
A21C C35A A39C G100C G136U | ≤ -4.2
A21G U31G C38U A66G C93A G124U U144A | ≤ -4.2
A20U G48A A60G U139A A142C A147G | ≤ -4.2
A21C A24U C32A G80A C93U C95A | ≤ -4.2

Source: the RNAGym collection of RNA variant scans (doi:10.1073/pnas.2313332121)
